Data from article PMC8443706, “Functionally diverse heteromeric traps for ligands of the transforming growth factor-β superfamily” (Scientific Reports, 2021).

T1: activin A (human, UniProt P08476 311-426)
T1 sequence (looked up): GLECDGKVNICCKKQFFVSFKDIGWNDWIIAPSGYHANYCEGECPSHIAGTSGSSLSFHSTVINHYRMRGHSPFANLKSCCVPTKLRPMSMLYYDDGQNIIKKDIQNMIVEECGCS

T2: GDF11 (human, UniProt O95390 299-407)
T2 sequence (looked up): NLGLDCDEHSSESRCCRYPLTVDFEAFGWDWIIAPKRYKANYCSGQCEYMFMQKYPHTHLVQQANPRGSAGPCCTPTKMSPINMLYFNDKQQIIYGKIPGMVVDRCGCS

T3: BMP10 (human, UniProt O95393 317-424)
T3 sequence (looked up): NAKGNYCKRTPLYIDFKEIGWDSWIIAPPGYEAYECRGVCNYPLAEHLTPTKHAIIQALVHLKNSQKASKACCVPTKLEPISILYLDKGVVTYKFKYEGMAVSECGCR

T4: BMP9 (human, UniProt Q9UK05 320-429)
T4 sequence (looked up): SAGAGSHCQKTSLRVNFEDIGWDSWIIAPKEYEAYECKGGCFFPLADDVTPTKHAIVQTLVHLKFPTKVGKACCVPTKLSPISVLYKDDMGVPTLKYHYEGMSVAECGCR

T5: growth differentiation factor 8 (GDF8, or myostatin) (human, UniProt O14793 267-375)
T5 sequence (looked up): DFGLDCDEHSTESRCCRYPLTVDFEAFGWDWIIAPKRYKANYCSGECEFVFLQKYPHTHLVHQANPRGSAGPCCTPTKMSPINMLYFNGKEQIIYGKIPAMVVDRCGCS

T6: activin B (human, UniProt P09529 293-407)
T6 sequence (looked up): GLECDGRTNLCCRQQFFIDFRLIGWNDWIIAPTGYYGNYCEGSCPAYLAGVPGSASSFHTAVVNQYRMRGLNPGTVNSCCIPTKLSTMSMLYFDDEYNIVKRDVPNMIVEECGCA

T7: BMP7 (human, UniProt P18075 293-431)
T7 construct: source: bought: R&D Systems
T7 sequence (looked up): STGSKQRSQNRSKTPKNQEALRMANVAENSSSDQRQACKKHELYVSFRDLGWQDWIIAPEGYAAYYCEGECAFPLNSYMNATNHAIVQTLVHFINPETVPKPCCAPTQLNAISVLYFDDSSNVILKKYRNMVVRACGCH

T8: BMP6 (human, UniProt P22004 375-513)
T8 construct: source: bought: R&D Systems
T8 sequence (looked up): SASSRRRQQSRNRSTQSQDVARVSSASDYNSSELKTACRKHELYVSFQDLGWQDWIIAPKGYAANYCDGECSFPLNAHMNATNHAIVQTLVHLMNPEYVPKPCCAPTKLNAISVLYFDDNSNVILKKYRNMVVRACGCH


How the values were obtained:
[1] = target: T1, activin A; assay: cell-based or functional assay
[2] = target: T2, GDF11; assay: cell-based or functional assay
[3] = target: T3, BMP10; assay: cell-based or functional assay
[4] = target: T4, BMP9; assay: cell-based or functional assay
[5] = target: T5, growth differentiation factor 8 (GDF8, …); assay: cell-based or functional assay
[6] = target: T6, activin B; assay: cell-based or functional assay
[7] = target: T7, BMP7; assay: SPR; same experiment as a1 (Biacore 8K, 37 °C, receptor dimers captured by anti-human Fc, HBS-EP+ with 350 mM NaCl added and 0.5 mg/mL BSA) but fitted with a bivalent analyte model (bold cells of Table 1); the first binding step is the one considered; details: both partners purified
[8] = target: T8, BMP6; assay: SPR; Biacore 8K, 37 °C; Fc-fusion receptor dimers captured by anti-human Fc antibody on a CM5 chip (100-150 RU); ligands injected in two-fold dilution series (300 s association, 600 s dissociation); HBS-EP+ supplemented with 350 mM NaCl and 0.5 mg/mL BSA; 1:1 Langmuir model with a term for mass transport; details: both partners purified
[9] = target: T1, activin A; assay: as above; details: both partners purified
[10] = target: T2, GDF11; assay: as above; details: both partners purified

| IC50 of the trap for inhibition of ligand-induced SMAD2/3 (CAGA12) luciferase reporter signalling in A204 cells (ligand with the cells' receptors) [1] [nM] | IC50 of the trap for inhibition of ligand-induced SMAD2/3 (CAGA12) luciferase reporter signalling in A204 cells (ligand with the cells' receptors) [2] [nM] | IC50 of the trap for inhibition of ligand-induced SMAD1/5/8 (BRE) luciferase reporter signalling in T98G cells (ligand with the cells' receptors) [3] [nM] | IC50 of the trap for inhibition of ligand-induced SMAD1/5/8 (BRE) luciferase reporter signalling in T98G cells (ligand with the cells' receptors) [4] [nM] | IC50 of the trap for inhibition of ligand-induced SMAD2/3 (CAGA12) luciferase reporter signalling in A204 cells (ligand with the cells' receptors) [5] [nM] | IC50 of the trap for inhibition of ligand-induced SMAD2/3 (CAGA12) luciferase reporter signalling in A204 cells (ligand with the cells' receptors) [6] [nM] | Kd [7] [nM] | koff [7] [s⁻¹] | kon [7] [M⁻¹ s⁻¹] | Kd [8] [nM] | koff [8] [s⁻¹] | kon [8] [M⁻¹ s⁻¹] | Kd [9] [nM] | koff [9] [s⁻¹] | kon [9] [M⁻¹ s⁻¹] | Kd [10] [nM] | koff [10] [s⁻¹] | kon [10] [M⁻¹ s⁻¹] | Binder |
| --- | --- | --- | --- | --- | --- | --- | --- | --- | --- | --- | --- | --- | --- | --- | --- | --- | --- | --- |
| 0.11 | 0.09 | 0.03 | 0.57 | 0.76 | 0.06 | > 10 | > 0.01 | 800000 | 0.348 | 0.00273 | 7.8e+06 |  |  |  |  |  |  | IIB-Fc:IIB-Fc homodimer (human ActRIIB ECD fused to human IgG1 Fc) (Fc fusion, UniProt Q13705-1 19-134, looked up, activin receptor type IIB (ActRIIB) extracellular domain, human, aa 19-134 of NP_001097.2; Chains linked by disulfide bonds between the Fc domains; a form with murine IgG2a Fc was used only in mice; also called ActRIIB-Fc homodimer; ActRIIB-Fc; not shown: Fc (human IgG1), C-terminal, kept) SGRGEAETRECIYYNANWELERTNQSGLERCEGEQDKRLHCYASWRNSSGTIELVKKGCWLDDFNCYDRQECVATEENPQVYFCCCEGNFCNERFTHLPEAGGPEVTYEPPPTAPT |
| > 100 |  |  |  |  |  |  |  |  |  |  |  | > 10 | > 0.01 | 200000 | > 10 | > 0.01 | 500000 | ALK4-Fc:ALK4-Fc homodimer (R&D Systems Cat #808-AR-100) (Fc fusion, human, UniProt P36896-1 24-126, looked up, activin receptor-like kinase 4 (ALK4) extracellular domain, human; Bought product; source: bought: R&D Systems (Cat #808-AR-100); not shown: Fc (human)) SGPRGVQALLCACTSCLQANYTCETDGACMVSIFNLDGMEHHVRTCIPKVELVPAGKPFYCLSSEDLRNTHCCYTDYCNRIDLRVPSGHLKEPEHPSMWGPVE |
